The data set can be described thus: soluble on expression in E. coli; label from the status in PepcDB or PDB records.
With “MQKHWWHKATVYQIYPKSFMDTNGDGIGDLKGITSKLDYLQKLGVMAIWLSPVYDSPMDDNGYDIANYEAIADIFGNMADMDNLLTQAKMRGIKIIMDLVVNHTSDEHAWFIEAREHPDSSERDYYIWCDQPNDLESIFGGSAWQYDDKSDQYYLHFFSKKQPDLNWENANLRQKIYDMMNFWIDKGIGGFRMDVIDMIGKIPAQHIVSNGPKLHAYLKEMNAASFGQHDLLTVGETWGATPEIAKQYSNPVNHELSMVFQFEHIGLQHKPEAPKWDYVKELNVPALKTIFNKWQTELELGQGWNSLFWNNHDLPRVLSIWGNTGKYREKSAKALAILLHLMRGTPYIYQGEEIGMTNYPFKDLNELDDIESLNYAKEAFTNGKSMETIMDSIRMIGRDNARTPMQWDASQNAGFSTADKTWLPVNPNYKDINVQAALKNSNSIFYTYQQLIQLRKENDWLVDADFELLPTADKVFAYLRKVREERYLIVVNVSDQEEVLEIDVDKQETLISNTNESAALANHKLQPWDAFCIKILEHHHHHH”, the “soluble on expression in E. coli” value is “soluble”. Next, “MGSDKIHHHHHHMNIERADFVDRVKIFVKAGDGGNGCVSFRREKYVPKGGPDGGDGGNGGFVFLRANPSVSTLIEFVNKRKFMAENGKHGMGKKMKGRNGKDLFIDVPVGTVVKDAVTGEVIADLNEPGKIVCVARGGRGGRGNAHFATSIKQAPLIAERGEKGESRWLELELKILADVGLVGYPNVGKSSLISRISNARPKIANYPFTTLIPNLGVVKYDDFSFVVADIPGLIEGASEGVGLGNVFLRHVERCYLIAHVIDVSGYEREDPVRDYFVIREEMKKYSPFLLEKPEIVVANKIDLIGKEELEKILKRLRDATNREVIPVSAVTGEGIDLLVSKLASIVREMKVEKPERKEEKFVKPSPVWRRLPEKFHLEVVKEDEGYWVVEGENLRVWIERFDLNQRDARLMLLQVLEKNGLNNKLKEAGVKEGDVVRIGDFEFEYRE”: “not soluble”.

For the sequence “MDRVIAAQVYLRICELGSLSAAARALGMSRPMVSRYLEQMESWAGARLIHRSTRRLTLTPAGEKVLLKTRGLTRIADEIAGERQRADPSGTLRVACAHFTAMQLISPLLPDFLARYPLLRLELDINNHPVSLIGERIDVAIRITDNPEAGAIARRLGVCRSLLCAAPGWMRQHGPLTTPDDLQRHNCLLYSHFASQHWQFSDAQGREASVAVNGNLSAGISSLLLEAAVAGCGIAMLPELEARGAIASGTLEVVLPEWTPKALSVYGIYLSRDYQPDGLPLFLDALQRRLGEETGHG”, the “soluble on expression in E. coli” value was “not soluble”. For “MSFAQQKLSELAVSIPGATKIFREYDLDFCCGGSVLLEVAAQQKNLNLAEIEKRLTDLQQSKAENNDKDWTSASYAEMIDHIITRFHNRHREQLPELITLAEKVENIHGDRDDCPIGVVAQLEKIYAELSQHLMKEEQILFPMIKMGNYAMASMPIRVMEMEHDEAGQDVEVIKSLTNNCTPPADACFSWKALYSGINEFIDDLMHHIHLENNILFPRVLNEK”, the “soluble on expression in E. coli” value is reported as “not soluble”. In the case of “MESTLQIMPVQRTSRNFGEYAEEAVIIEEPIIKQKRPLFIEANTIEASLEHLRNDCIIPVFAKDNEATLSHVAFIEAVQDATNTFFSGEQIESPDIRVSHVIKGRIPEAIHKPANQLLESDKTIYYERCAFVIEVPTIYETVHGNRLTLTIGGVRAYNHTNLYSKKGAERFKVFIGFTCKVCTNLCVSTDGYLSCLEVTNTRDLYQAVLEMFHKYDAAKHIHLMQSLGNTSMTEHQFCQLLGRMRLYQSLPQGYQKDIPKMLLTDTQVNNVARAYINDENFGSLGNDLSMWKLYNLLTGANKSSYIDSFLDRAYNATELATGICSALHGDNKYQWFLS”, the “soluble on expression in E. coli” value was “not soluble”. Consider “MGSDKIHHHHHHMFKNVSWKLKEHSELKKYGIDHNILLDVVSRERRKIYFDYWKNLPKLVTSSLGLKFTDGTPVDALYEVFIEGIYDVDGFRPKMGDVVVDVGANYGDSSIWWAKKKFGAKVIAFEPLADVFHELEKNIRINHADVIAYNVALGNGNFINGSKQGNMFVAGGQAKIQTSRLDDYTFDRLDLLKIDVEGFEHDVLLGARSTISKFKPKIIIETHSVALRKLCHEFLISLGYSLSLEGRTIRAHSPGMDKVTNLFYSPII”, for which the “soluble on expression in E. coli” value is “not soluble”.

Take “MFKTIDTNQKDVKLTVFSSDEKSFMVTATLVEKAGHAFLINSKFTQSDSKEIVEYLKKNNLSLDKIFIIHGDPDYYFGLESIKAVYPEAIAYATESTVEHIVHSVLGKLKVWKDALGENAPSNVVLPQVFKEKAIDFQGLTFELVGLEHYRTSLFNKELKVLIGGIDVFNEIHVFLADTSSKAAMEAWIENLKVLQALHADIIVPSHGSIEKSLNNQALTATMDYLRTAVQASEESGTSKDFVAKLEAAYPDYANKGVLELSAKVVTKEMPWGLEHHHHHH”: the “soluble on expression in E. coli” value was “soluble”. Next, “MKQLTILGSTGSIGCSTLDVVRHNPDSFRVIALVAGKNVARMAEQCLEFSPRYAVMDDTSSAEQLKIMLQQHGSRTEVLSGQQAACEMAALDEVGHVMAAIVGAAGLLPTLAAIRAGKTILLANKESLVTCGRLFMDEVKRSNARLLPVDSEHNAIFQSLPQSIQHNLGYADLEQNGVTSILLTGSGGPFRETPMCDLAAMTPDQACRHPNWSMGRKISVDSATMMNKGLEYIEARWLFNASARQMEVLIHPQSVIHSMVRYQDGSVLAQLGEPDMRTPIAHTMAWPNRVTSGAQPLDFCKLSALTFSAPDYQRYPCLKLAMEAFEQGQAATTALNAANEITVAAFLAQQIRFTDIAGLNLAVLERMDLQEPASVEDVLQVDAIAREVARKQVIRLSR”: “not soluble”. Take “MLDSKLKAPVFTVRTQGREYGEFVLEPLERGFGVTLGNPLRRILLSSIPGTAVTSVYIEDVLHEFSTIPGVKEDVVEIILNLKELVVRFLNPSLQTVTLLLKAEGPKEVKARDFLPVADVEIMNPDLHIATLEEGGRLNMEVRVDPGVGYVPAEKHGIKDRINAIPVDAVFSPVRRVAFQVEDTRLGQRTDLDKLTLRIWTDGSVTPLEALNQAVEILREHLTYFSNPQAAAVAAPEEAKEPEAPPEQEEELDLPLEELGLSTRVLHSLKEEGIESVRALLALNLKDLKNIPGIGERSLEEIKEALEKKGFTLKE”: the “soluble on expression in E. coli” value is “soluble”. Next, “MGSDKIHHHHHHMQKESIYGLTREQLVDWFLAHGEKKFRATQVWEWLYTKRVASFSEMSNISKSLMTLLEENFSLNPLKQVIVQEAQDGTVKYLFELPDKNMIETVLMRQEYGLSVCVTTQVGCNIGCTFCASGLLKKQRDLTAGEIVAQIMWVQHYFDERGLDERVSHVVVMGIGEPFDNYANVMNFLRTINDDKGLAIGARHITVSTSGLVPKIREFADSGLQVNLAISLHAPNNEVRTSIMRINRSFPIEKLMAAIDEYIEKTNRRVTFEYIMLSQVNDRPEHAQQLADLLRNKKKLSYVNLIPYNPVSEHDQYSRSSKEAVLKFYDVLKKNGINCVIRKEHGTDIDAACGQLRSKQMKKEKVKNQ”: “not soluble”; “MAVKDNYCVIMGGGIGSRFWPFSRESHPKQFLDFFGTGRSLLQMTYDRFARFIPRENILVVTNELYVDKVREQLPEIEPDQILREPTRRNTAPCIAYASYHIYARNPKANIIVAPSDHLILREDEFVRAASEALEFVADHEHLVTLGIRPSRPETGYGYIQMAEEKTGDFIRVKTFTEKPNAEMASIFLASGEFLWNSGMFVWNVESILAAFRKHLPEVTSSLENGLAHFNTPEERRFIDQAFPYCPSISIDFGVMEKADNVLVMPVDFGWADLGTWGSLYELAQKDDAGNASLKTRTLFYEAERNIVTTDNPQKLVVVQGINDCIVAESGNVLLICRAEEEQRIKHFVADAALKYDKEYN”: “soluble”; “MGSDKIHHHHHHMTSPVENVKKKPRPLALSPSRAGDYQQCPLLYRFRAIDRLPEPKTVAQVKGTLVHAVLEYMHKLPREEREYPAMVKQLKPTWAQMCEEDAELKELVPEDELYDFLVDSRTLLRGYFEMENPQGFDATECEMYVDTVLPNGVPVRGFIDRVDTAPTGQVRVIDYKTGKKPKPQWSQQAQFQMLFYALVYWRMFNEIPAQLRLMYLKVNDSMFLNPSREQLEFFERDLGDLWAKIEMDGKAGHFRTKTSKLCGWCPHQSLCPEYGGVPPEYPGWPGSTAD”: “not soluble”.

The record behind these values is the DeepSol protein solubility set.
